# Measurements reported in patent US20050239074.
# T1: human parathyroid hormone, P01270
# T1 chain: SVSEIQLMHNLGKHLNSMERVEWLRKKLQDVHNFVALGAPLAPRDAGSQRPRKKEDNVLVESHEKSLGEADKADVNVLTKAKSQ
# Target: T1, human parathyroid hormone, P01270
protein,measurement,value
Hansenula polymorpha yapsin1 (protein) DPQFVKLEASVLRGSTYKDSQKGAKPFMLEKRADDGSVTMELQNAQSFYQVEIEIGSDKQKVGVLIDTGSSDLWVMNSNNSYCSSSSTKKLKRDGPADALQKGRDLSDLYNFNSPNEDNNAKGFLGGWGDLTTVETATQDETQTALAAQATVDCSLYGTFNPSTSNSFHNNGTTFEISYADRTFARGTWGYDDVTFNGVTVNDLSLAVADETDSSTGVFGIGLRELETTYSGGGPQHYIYDNLPFKMVDQGLINRAAYSVYLNSTESSTASILFGAVDQSKYTGSLGLLPIINTAASYGYQKPLRLQITLSAITVSDSRGQQASIGSGAAAALLDTGTTLTYAPSEIVEKLAETLGFDYSSSVGAYVARCRDVDSYAVNFDFQGKVIEAPLSSFLIALQTNSGEVSSYCALGIFSSGDESFTLGDTFLRNAYFVADLEGYQIAIANVNLNPGAEQIEVISGNSIPSASSVSDYSNTWGASATALDTDRPTTLGSVTAVGDERVTSTKKVSSVKTSTSSGSGSTSESSTSSSHSSNGPRTVGFSLCAVLCAFLISILVV,"degradation level of hPTH by the yapsin activity (culture supernatant incubated with hPTH for 2, 4 and 6 hours at 37 C, SDS-polyacrylamide gel)","in the culture fluid of the wild type, it was already hard to observe hPTH remaining in the culture supernatant after 2 hour cultivation, while in the culture supernatant of hpyps1Δ mutant strain, a substantial amount of hPTH was observed"
